# Data from PMC13381803 (2026).
# T1: Hna with a C-terminal GFP tag (Sinorhizobium meliloti)
# T1 chain: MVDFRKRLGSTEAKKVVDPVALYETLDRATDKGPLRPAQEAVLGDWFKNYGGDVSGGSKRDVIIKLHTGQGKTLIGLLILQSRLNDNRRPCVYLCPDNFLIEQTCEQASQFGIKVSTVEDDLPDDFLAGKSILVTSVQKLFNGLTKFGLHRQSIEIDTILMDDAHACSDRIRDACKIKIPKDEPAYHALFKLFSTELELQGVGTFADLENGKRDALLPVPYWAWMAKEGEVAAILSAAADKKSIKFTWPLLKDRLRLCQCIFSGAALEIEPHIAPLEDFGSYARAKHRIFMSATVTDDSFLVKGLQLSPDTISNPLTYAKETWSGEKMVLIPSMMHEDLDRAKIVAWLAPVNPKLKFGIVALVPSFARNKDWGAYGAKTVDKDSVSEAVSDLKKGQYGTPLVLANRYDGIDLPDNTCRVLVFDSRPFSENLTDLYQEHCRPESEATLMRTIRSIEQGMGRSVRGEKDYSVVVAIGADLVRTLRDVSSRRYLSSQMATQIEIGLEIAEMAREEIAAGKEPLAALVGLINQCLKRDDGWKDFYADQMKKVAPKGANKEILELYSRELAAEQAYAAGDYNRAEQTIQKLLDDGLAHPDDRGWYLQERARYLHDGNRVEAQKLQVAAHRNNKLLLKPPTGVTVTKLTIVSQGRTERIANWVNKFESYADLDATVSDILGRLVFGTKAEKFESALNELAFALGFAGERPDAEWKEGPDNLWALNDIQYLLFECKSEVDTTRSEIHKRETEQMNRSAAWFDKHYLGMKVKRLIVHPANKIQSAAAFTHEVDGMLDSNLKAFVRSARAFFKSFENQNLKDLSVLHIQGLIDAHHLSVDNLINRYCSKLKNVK
# B1: Hna (helicase-nuclease abortive infection), wild type, Sinorhizobium meliloti (enzyme)
# chain: T1 chain
# Tests used:
# [1] = target: T1, Hna with a C-terminal GFP tag; test: FP; with ATP
# [2] = target: T1, Hna with a C-terminal GFP tag; test: FP; without ATP
binder,measurement,setting,value
B1,Kd,[1],337 nM
same,Kd,[2],4460 nM
